What was measured:
[1] = target: human NOP receptor in HEK293 cells (human) (UniProt P41146)
[2] = target: human NOP receptor in HEK293 cells (human) (UniProt P41146); remark: listed apart in the source
[3] = target: human NOP receptor in HEK293 cells (human) (UniProt P41146); remark: listed apart in the source

Sequence of human NOP receptor in HEK293 cells (human) (P41146 whole entry): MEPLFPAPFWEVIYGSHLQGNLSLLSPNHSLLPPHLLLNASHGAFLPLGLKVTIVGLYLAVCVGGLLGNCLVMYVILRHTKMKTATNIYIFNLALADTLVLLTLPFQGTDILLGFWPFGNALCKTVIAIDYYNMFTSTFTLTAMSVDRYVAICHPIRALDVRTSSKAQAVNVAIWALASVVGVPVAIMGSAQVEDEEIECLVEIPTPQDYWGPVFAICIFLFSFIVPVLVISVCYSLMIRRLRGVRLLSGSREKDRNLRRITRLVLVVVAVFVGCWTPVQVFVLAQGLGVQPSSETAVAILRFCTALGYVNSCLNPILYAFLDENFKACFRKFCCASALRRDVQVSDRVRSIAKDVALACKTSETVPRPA

## human MOP receptor in HEK293 cells (from UniProt P35372 1-400)
[1]
  GTPγ[35S] binding stimulated by De101, HEK (MOP/NOP) membranes: pEC50: 8.67
  GTPγ[35S] binding stimulated by DeNO, HEK (MOP/NOP) membranes: pEC50: 7.63
  GTPγ[35S] binding stimulated by Dermorphin, HEK (MOP/NOP) membranes: pEC50: 7.6
  inhibition of cAMP formation by De101, HEK (MOP/NOP) cells: Emax (% inhibition): 86%
  inhibition of cAMP formation by De101, HEK (MOP/NOP) cells: pEC50: 8.81
  inhibition of cAMP formation by DeNO, HEK (MOP/NOP) cells: Emax (% inhibition): 88.6%
  inhibition of cAMP formation by DeNO, HEK (MOP/NOP) cells: pEC50: 7.55
  inhibition of cAMP formation by Dermorphin & N/OFQ (co-administered), HEK (MOP/NOP) cells: Emax (% inhibition): 81.3%
  inhibition of cAMP formation by Dermorphin & UFP-101 (co-administered), HEK (MOP/NOP) cells: Emax (% inhibition): 84.4%
  inhibition of cAMP formation by Dermorphin & UFP-101 (co-administered), HEK (MOP/NOP) cells: pEC50: 8.95
  inhibition of cAMP formation by Dermorphin, HEK (MOP/NOP) cells: Emax (% inhibition): 81.4%
  inhibition of cAMP formation by Dermorphin, HEK (MOP/NOP) cells: pEC50: 7.59
  inhibition of cAMP formation by N/OFQ, HEK (MOP/NOP) cells: Emax (% inhibition): 86.3%
  inhibition of cAMP formation by N/OFQ, HEK (MOP/NOP) cells: pEC50: 9.17
[2]
  ERK1/2 phosphorylation (fold over basal), 1 μM Dermorphin, HEK (MOP/NOP) cells, 2.5-30 min; peak at 10 min: 11.8 fold
[3]
  ERK1/2 phosphorylation (fold over basal), 1 μM N/OFQ, HEK (MOP/NOP) cells, 2.5-30 min; peak at 7.5-10 min: 5 fold

— publication PMC8782398
